Assay results published in the supplement of paper PMC9112550, “Optimization of the antimicrobial peptide Bac7 by deep mutational scanning” (BMC Biology, 2022).

test system: Escherichia coli TOP10; experiment: shrunken log2 fold change of peptide-encoding DNA abundance (4.5 h post-induction vs induction); higher = less antimicrobial activity (less host growth inhibition); conditions: time post-induction: 4.5 h; library: site-saturation at positions 5, 18, 19, 20
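Note: peptides expressed intracellularly from a pBAD plasmid library in pooled LB shake-flask culture, induced with 0.3% L-arabinose, DNA abundance read by NGS, three biological replicates, DESeq2 with apeglm shrinkage.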

Sequence | shrunken log2 fold change
RRIRHRPPRLPRPRPRPASNPRP | -0.456
RRIRIRPPRLPRPRPRPPGCPRP | 0.354
RRIRLRPPRLPRPRPRPHCLPRP | -0.0829
RRIRNRPPRLPRPRPRPWLAPRP | -0.254
RRIRKRPPRLPRPRPRPLYTPRP | -0.288
RRIRFRPPRLPRPRPRPGYFPRP | -0.278
RRIRARPPRLPRPRPRPHAYPRP | 0.0225
RRIRSRPPRLPRPRPRPKVWPRP | 0.115
RRIRRRPPRLPRPRPRPTTGPRP | -0.00353
RRIRWRPPRLPRPRPRPQRRPRP | 0.358
RRIRRRPPRLPRPRPRPCDPPRP | 0.0316
RRIRNRPPRLPRPRPRPYMGPRP | -1.97
RRIRCRPPRLPRPRPRPYWHPRP | -1.53
RRIRCRPPRLPRPRPRPVKHPRP | -0.263
RRIRDRPPRLPRPRPRPGPAPRP | 0.608
RRIRERPPRLPRPRPRPVWCPRP | -0.156
RRIRPRPPRLPRPRPRPYSLPRP | -0.139
RRIRDRPPRLPRPRPRPEDYPRP | 0.0219
RRIRLRPPRLPRPRPRPEHCPRP | 0.0119
RRIRWRPPRLPRPRPRPMTHPRP | -0.0884
RRIRPRPPRLPRPRPRPRKGPRP | 0.322
RRIRKRPPRLPRPRPRPFFSPRP | -0.0214

Sequence | shrunken log2 fold change
RRIRERPPRLPRPRPRPYTVPRP | -0.74
RRIRGRPPRLPRPRPRPMWQPRP | 0.418
RRIRFRPPRLPRPRPRPLQHPRP | -0.134
RRIRHRPPRLPRPRPRPMMPPRP | -0.365
RRIRVRPPRLPRPRPRPLMYPRP | -0.564
RRIRYRPPRLPRPRPRPSPWPRP | -0.513
RRIRQRPPRLPRPRPRPNPGPRP | -0.205
RRIRHRPPRLPRPRPRPWFWPRP | 0.0142
RRIRRRPPRLPRPRPRPEEHPRP | 0.107
RRIRGRPPRLPRPRPRPRATPRP | 1.72
RRIRPRPPRLPRPRPRPHGRPRP | -0.0223
RRIRTRPPRLPRPRPRPSFIPRP | -0.761
RRIRIRPPRLPRPRPRPYFSPRP | -0.382
RRIRRRPPRLPRPRPRPGGFPRP | 0.36
RRIRKRPPRLPRPRPRPFPNPRP | 0.0546
RRIRKRPPRLPRPRPRPWIPPRP | 0.0372
RRIRVRPPRLPRPRPRPCATPRP | 0.0911
RRIRVRPPRLPRPRPRPAMYPRP | 3.58
RRIRKRPPRLPRPRPRPWLRPRP | 0.143
RRIRHRPPRLPRPRPRPQTMPRP | 3.11
RRIRRRPPRLPRPRPRPICFPRP | 0.496
RRIRPRPPRLPRPRPRPEWKPRP | -0.00168

Sequence | shrunken log2 fold change
RRIRFRPPRLPRPRPRPMKAPRP | 0.035
RRIRGRPPRLPRPRPRPKDGPRP | 0.798
RRIRSRPPRLPRPRPRPNATPRP | 0.551
RRIRNRPPRLPRPRPRPVRSPRP | -0.00792
RRIRLRPPRLPRPRPRPNSIPRP | -0.0133
RRIRLRPPRLPRPRPRPIGYPRP | -0.253
RRIRRRPPRLPRPRPRPCYQPRP | -0.16
RRIRCRPPRLPRPRPRPSANPRP | 0.0237
RRIRCRPPRLPRPRPRPIEDPRP | 0.102
RRIRIRPPRLPRPRPRPCRYPRP | -0.317
RRIRSRPPRLPRPRPRPEVPPRP | 0.0326
RRIRDRPPRLPRPRPRPGSRPRP | 0.0273
RRIRLRPPRLPRPRPRPCCKPRP | -0.102
RRIRLRPPRLPRPRPRPYQFPRP | -0.0128
RRIRRRPPRLPRPRPRPKSNPRP | 0.0649
RRIRCRPPRLPRPRPRPENSPRP | -0.0484
RRIRTRPPRLPRPRPRPQMCPRP | 0.0024
RRIRLRPPRLPRPRPRPILDPRP | -0.05
RRIRKRPPRLPRPRPRPCELPRP | -0.00602
RRIRMRPPRLPRPRPRPAQAPRP | 0.107
RRIRKRPPRLPRPRPRPGFLPRP | 0.203
RRIRDRPPRLPRPRPRPSPHPRP | -0.0473

Sequence | shrunken log2 fold change
RRIRRRPPRLPRPRPRPQIIPRP | -0.0755
RRIRYRPPRLPRPRPRPDWKPRP | -0.208
RRIRHRPPRLPRPRPRPIFEPRP | -0.0251
RRIRCRPPRLPRPRPRPGQSPRP | 0.0538
RRIRQRPPRLPRPRPRPPRGPRP | 2.1
RRIRGRPPRLPRPRPRPCTGPRP | 0.11
RRIRGRPPRLPRPRPRPWEWPRP | 0.911
RRIRTRPPRLPRPRPRPEQSPRP | 0.0803
RRIRWRPPRLPRPRPRPNAYPRP | -0.214
RRIRMRPPRLPRPRPRPWNHPRP | -0.0446
RRIRQRPPRLPRPRPRPRLVPRP | 0.211
RRIRCRPPRLPRPRPRPVPNPRP | -0.26
RRIRNRPPRLPRPRPRPRVWPRP | 3.4
RRIRPRPPRLPRPRPRPEIEPRP | 0.0922
RRIRHRPPRLPRPRPRPTSKPRP | -0.125
RRIRNRPPRLPRPRPRPGVGPRP | 0.402
RRIRDRPPRLPRPRPRPMDPPRP | -0.0367
RRIRTRPPRLPRPRPRPMENPRP | -0.011
RRIRSRPPRLPRPRPRPQVQPRP | 0.374
RRIRFRPPRLPRPRPRPGRRPRP | 0.334
RRIRERPPRLPRPRPRPFMIPRP | -0.768
RRIRRRPPRLPRPRPRPNVGPRP | 0.0319

Sequence | shrunken log2 fold change
RRIRLRPPRLPRPRPRPFMNPRP | -0.217
RRIRWRPPRLPRPRPRPHWSPRP | -0.182
RRIRTRPPRLPRPRPRPYFYPRP | -0.842
RRIRRRPPRLPRPRPRPYIYPRP | -0.268
RRIRERPPRLPRPRPRPSCIPRP | -0.455
RRIRQRPPRLPRPRPRPGRMPRP | 0.0366
RRIRQRPPRLPRPRPRPKFMPRP | -0.18
RRIRNRPPRLPRPRPRPVEKPRP | 0.143
RRIRDRPPRLPRPRPRPGQFPRP | -0.166
RRIRGRPPRLPRPRPRPQKKPRP | 0.0788
RRIRARPPRLPRPRPRPMQEPRP | 0.421
RRIRSRPPRLPRPRPRPQYLPRP | -0.683
RRIRCRPPRLPRPRPRPTALPRP | 0.216
RRIRWRPPRLPRPRPRPVRTPRP | 0.955
RRIRGRPPRLPRPRPRPWQNPRP | 0.041
RRIRGRPPRLPRPRPRPMESPRP | 0.295
RRIRNRPPRLPRPRPRPRFVPRP | -0.384
RRIRSRPPRLPRPRPRPARQPRP | -0.0654
RRIRPRPPRLPRPRPRPMVDPRP | -0.019
RRIRFRPPRLPRPRPRPIHNPRP | -0.745
RRIRFRPPRLPRPRPRPQKEPRP | 0.172
